Experimental findings from US20260159596A1 (SELECXINE, published 2026) are described below.

Where a chain is given by its changes, count along the chain named.

First the molecules themselves.
B1: anti-DR3 scFv clone 2-10 (phage display) (scFv, V domains shown)
VH: QVQLVQSGAEVKKPGASVKVSCKASGYTFTSYGISWVRQAPGQGLEWMGWISAYNGNTNYAQKLQGRVTMTTDTSTSTAYMELRSLRSDDTAVYYCASGPDYGMLDYWGQGTLVTVS
VL: EIVMTQSPSSLPASVGDRVTITCQASQDISNYLNWYQQKPGKAPKLLIYDASNLETGVPSRFSGSGSGTDFTFTISSPQPEDIATYYCQQYDNLPLTFGGGTKVEIK
B2: anti-DR3 2-10 monoclonal antibody (antibody, V domains shown)
VH: B1 VH
VL: B1 VL
notes: Human IgG (detected with anti-human IgG Fc); also called 2-10 mAb; clone 2-10
B3: anti-DR3 6-15 monoclonal antibody (antibody, V domains shown)
VH: QVQLVQSGGGLVQPGGSLRLSCAASGFTFSSYSMNWVRQAPGKGLEWVSYISSSSSTIYYADSVKGRFTISRDNAKNSLYLQMNSLRAEDTAVYYCARWDGYCSGGSCYSGMDYWGQGTLVTVS
VL: B1 VL with E1D, V3E, P12S, R18K, F71S, P78L
notes: Human IgG; also called 6-15 mAb; clone 6-15
B4: anti-DR3 scFv clone 6-15 (phage display) (scFv, V domains shown)
VH: B3 VH
VL: B1 VL with E1D, V3E, P12S, R18K, F71S, P78L
B5: anti-DR3 4-4 IgG4 monoclonal antibody (antibody, V domains shown)
VH: EVQLVESGGGLVKPGGSLRLSCAASGFTFSDYYMSWIRQAPGKGLEWVSYISSSSSYTNYADSVKGRFTISRDNAKNSLYLQMNSLRAEDTAVYYCASNVDTAMVGAFDIWGQGTLVTVSS
VL: DIEMTQSPSSVSASVGDTVTITCRASQHISNWLAWYQQKPGQAPKFLIYTASNLQSGVPSRFSGSGYGTDFTLTISGLQPEDFATYYCQQADSFPLTFGGGTKVDIKR
notes: also called clone 4-4 IgG4; human 4-4 IgG4P mAb
B6: recombinant DR3 (DR3-His tag) (receptor, human, UniProt Q93038 25-199, looked up)
chain: QGGTRSPRCDCAGDFHKKIGLFCCRGCPAGHYLKAPCTEPCGNSTCLVCPQDTFLAWENHHNSECARCQACDEQASQVALENCSAVADTRCGCKPGWFVECQVSQCVSSSPFYCQPCLDCGALHRHTRLLCSRRDTDCGTCLPGFYEHGDGCVSCPTSTLGSCPERCAAVCGWRQ
notes: it is treated as the same reagent; also called rDR3; death receptor 3; not shown: His tag
B7: anti-DR3 3-18 monoclonal antibody (antibody, V domains shown)
VH: QVQLQQSGPGLVKPSETLSLTCTVSGGSISSSSYYWGWIRQPPGKGLEWIGSIYYSGSTYYNPSLKSRVTISVDTSKNQFSLKLSSVTAADTAVYYCARQVSGPLDYWGQGTLVTVS
VL: DIVMTQSPSSLSASVGDRVTITCRASQGIRNDLGWYQQKPGKAPKLLIYAASSLQSGVPSRFSGSGSGTDFTLTISSLQPEDFATYYCLQDYNYPRTFGQGTKVEIK
notes: Human IgG; also called 3-18 mAb; clone 3-18
B8: anti-DR3 scFv clone 3-18 (phage display) (scFv, V domains shown)
VH: B7 VH
VL: B7 VL
B9: anti-DR3 4-4 monoclonal antibody (subclass not stated) (antibody, V domains shown)
VH: EVQLVESGGGLVKPGGSLRLSCAASGFTFSDYYMSWIRQAPGKGLEWVSYISSSSSYTNYADSVKGRFTISRDNAKNSLYLQMNSLRAEDTAVYYCASNVDTAMVGAFDIWGQGTLVTVS
VL: DIEMTQSPSSVSASVGDTVTITCRASQHISNWLAWYQQKPGQAPKFLIYTASNLQSGVPSRFSGSGYGTDFTLTISGLQPEDFATYYCQQADSFPLTFGGGTKVDIK
notes: also called 4-4 mAb; clone 4-4
B10: clone 4-4 IgG2 monoclonal antibody (antibody, V domains shown)
VH: B9 VH
VL: B9 VL
notes: IgG2 subclass
B11: anti-DR3 scFv clone 4-4 (phage display) (scFv, V domains shown)
VH: B9 VH
VL: B9 VL
B12: clone 4-4 IgG1 monoclonal antibody (antibody, V domains shown)
VH: B9 VH
VL: B9 VL
notes: IgG1 subclass; also called anti-DR3 4-4 IgG1 antibody

The target in experiment [1] is B6. Put plainly: phage ELISA of single scFv clones on recombinant DR3.
Experiment [2] deals with B6. Kind of experiment: SPR, Biacore T100, DR3-His tag immobilized on CM5 chip. The protocol: (§1) SPR was performed using monoclonal antibodies from the clones selected in Example 1. After immobilizing 10 μg/ml DR3-His tag on a CM5 chip, the binding specificity and binding strength were measured using Biacore T100 under the conditions of a contact time of 30 sec and a flow rate of […].

In experiment [3] the target is B6. Put plainly: ELISA, DR3-His tag on Ni plate, anti-human IgG Fc HRP. The protocol:
The functionally best subclass of the anti-DR3 4-4 antibody identified as the best in Example 2 was analyzed. For this purpose, as anti-DR3 4-4 antibodies, clone 4-4 IgG1, clone 4-4 IgG2, and clone 4-4 IgG4 monoclonal antibodies were prepared according to IgG subclass, and ELISA was performed to compare the binding affinity to DR3. Specifically, 0.4 μg/ml DR3-His tag was put into and mixed with PBS, and then a Ni plate was coated with a total of 50 μl of the mixed solution. Thereafter, to prevent non-specific binding, the Ni plate was mixed with 200 μl of PBS consisting of 5% FBS and incubated at room temperature for 30 minutes, and incubated for 30 minutes by titrating the monoclonal antibody. The degree of binding between the coated DR3 and the monoclonal antibody was detected with anti-human IgG Fc HRP. The plate was washed five times with 250 μl of 0.1% Tween 20 at each step.

Experiment [4] deals with T1, DR3 expressed on the cell surface (DR3 stable cell line) (human, UniProt Q93038 25-417).
T1 construct: whole, on cells; also called DR3 natural form; human DR3
T1 sequence (looked up): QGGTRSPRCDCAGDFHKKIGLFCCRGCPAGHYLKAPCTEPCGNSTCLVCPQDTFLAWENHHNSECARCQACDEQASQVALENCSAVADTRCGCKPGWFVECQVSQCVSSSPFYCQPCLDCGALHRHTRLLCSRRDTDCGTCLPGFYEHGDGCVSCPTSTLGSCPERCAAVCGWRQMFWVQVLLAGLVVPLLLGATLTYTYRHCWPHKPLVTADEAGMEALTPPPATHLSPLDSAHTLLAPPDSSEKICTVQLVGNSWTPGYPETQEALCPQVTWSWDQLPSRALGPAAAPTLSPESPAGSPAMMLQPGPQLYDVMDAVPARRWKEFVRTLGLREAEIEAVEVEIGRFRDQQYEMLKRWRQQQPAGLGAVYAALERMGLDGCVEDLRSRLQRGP
Kind of experiment: FACS on DR3 stable cell line, 2 ug/ml antibody, anti-human IgG PE. The protocol: FACS was performed using monoclonal antibodies from the clones selected in Example 1. Specifically, a DR3 stable cell line at a concentration of 0.2×10⁶ was mixed with 2 μg/ml monoclonal antibody and incubated at 4° C. for 30 minutes, and the degree of binding between the DR3 stable cell line and the monoclonal antibody was confirmed by FACS analysis using anti-human IgG PE. For each step, cells were washed once with 200 μl of PBS. Isotype control was used as a negative control.

Experiment [5] has as its target T2, TL1A (tumor necrosis factor-like ligand 1A), His tag (human, UniProt O95150 72-251).
T2 construct: also called TL1A His tag; TL1A-His tag; not shown: His tag
T2 sequence (looked up): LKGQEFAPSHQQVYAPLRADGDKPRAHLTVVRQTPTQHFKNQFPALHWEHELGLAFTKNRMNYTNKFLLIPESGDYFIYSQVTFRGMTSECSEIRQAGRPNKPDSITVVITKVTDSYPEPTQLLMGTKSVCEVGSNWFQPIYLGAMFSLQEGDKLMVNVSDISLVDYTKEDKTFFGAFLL
Kind of experiment: SPR, Biacore T100, DR3-His tag immobilized on CM5 chip; TL1A as reference. The protocol: as §1

For the molecule B1, the binding result in experiment [1] was “binds”.
With B2, the binding result in experiment [2] was “binds”.
For the molecule B3, the binding result in experiment [3] and in experiment [4] was “binds” in each case.
For the molecule B4, the binding result in experiment [1] is “binds”.
With B5, the binding result in experiment [3] is “binds”.
As for B6, in experiment [5], the binding result was “binds”.
For B7, in experiment [2], the binding result was “binds”.
For the molecule B8, the binding result in experiment [1] is reported as “binds”.
B9: the binding result in experiment [2] and in experiment [4] was “binds” throughout.
For B10, in experiment [3], the binding result is reported as “binds”.
Take B11: in experiment [1], the binding result is reported as “binds”.
As to B12, the binding result in experiment [3] was “binds”.
